Reference: US20160311919A1

Legend:
[1] = target: GPNMB (CG56972), native full-length protein on the cell surface or in cell lysates (human) (UniProt Q14956); assay: FACS, UACC-62 cells, Ab 1 ug/mL
[2] = target: GPNMB (CG56972), native full-length protein on the cell surface or in cell lysates (human) (UniProt Q14956); assay: flow cytometry on SK-MEL-2 cells, Anti Human IgG PE
[3] = target: GPNMB-V5His (recombinant human GPNMB extracellular domain with C-terminal V5-His tag) (human) (UniProt Q14956); assay: ELISA, coated GPNMB, Ab 1 ug/mL
[4] = target: GPNMB-V5His (recombinant human GPNMB extracellular domain with C-terminal V5-His tag) (human) (UniProt Q14956); assay: ELISA, coated GPNMB, Ab 111 ng/mL
[5] = target: GPNMB-V5His (recombinant human GPNMB extracellular domain with C-terminal V5-His tag) (human) (UniProt Q14956); assay: ELISA, coated GPNMB, Ab 3 ug/mL
[6] = target: GPNMB-V5His (recombinant human GPNMB extracellular domain with C-terminal V5-His tag) (human) (UniProt Q14956); assay: ELISA, coated GPNMB, Ab 333 ng/mL
[7] = target: GPNMB-V5His (recombinant human GPNMB extracellular domain with C-terminal V5-His tag) (human) (UniProt Q14956); assay: ELISA, coated GPNMB, Ab 37 ng/mL
[8] = target: GPNMB-V5His (recombinant human GPNMB extracellular domain with C-terminal V5-His tag) (human) (UniProt Q14956); assay: ELISA, coated GPNMB, Ab 12.3 ng/mL
[9] = target: GPNMB-V5His (recombinant human GPNMB extracellular domain with C-terminal V5-His tag) (human) (UniProt Q14956); assay: SPR (Biacore), mAb on protein A, GPNMB 880 nM
[10] = target: GPNMB-V5His (recombinant human GPNMB extracellular domain with C-terminal V5-His tag) (human) (UniProt Q14956); assay: ELISA, coated GPNMB, secondary antibody alone (column head 3 ug/mL)
[11] = target: GPNMB (CG56972), native full-length protein on the cell surface or in cell lysates (human) (UniProt Q14956); assay: flow cytometry on HEK293 cells transfected with GPNMB plasmid, secondary antibody alone; on empty-vector cells it prints 5.86
[12] = target: GPNMB (CG56972), native full-length protein on the cell surface or in cell lysates (human) (UniProt Q14956); assay: flow cytometry on HEK293 cells transfected with GPNMB plasmid, 10 µg/mL antibody, PE goat anti-human secondary; the same staining on empty-vector cells prints 7.96

Sequence of GPNMB (CG56972), native full-length protein on the cell surface or in cell lysates (human) (Q14956 23-492): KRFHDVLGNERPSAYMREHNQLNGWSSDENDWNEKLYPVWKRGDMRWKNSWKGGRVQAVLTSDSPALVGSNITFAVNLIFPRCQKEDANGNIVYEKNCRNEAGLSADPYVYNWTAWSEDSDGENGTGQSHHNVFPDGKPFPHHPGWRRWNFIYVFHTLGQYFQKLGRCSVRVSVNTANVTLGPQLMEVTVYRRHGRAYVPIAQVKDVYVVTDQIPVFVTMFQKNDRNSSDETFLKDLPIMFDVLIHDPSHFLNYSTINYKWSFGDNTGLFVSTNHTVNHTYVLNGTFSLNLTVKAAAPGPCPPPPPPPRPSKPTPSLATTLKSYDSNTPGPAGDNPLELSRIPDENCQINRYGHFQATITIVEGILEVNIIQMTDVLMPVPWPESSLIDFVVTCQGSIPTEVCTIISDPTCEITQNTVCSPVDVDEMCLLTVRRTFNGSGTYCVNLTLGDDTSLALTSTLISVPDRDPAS

| Substance | Avg OD [3] [OD] | Avg OD [4] [OD] | Avg OD [5] [OD] | Avg OD [6] [OD] | other results |
| --- | --- | --- | --- | --- | --- |
| CR011.2.6.2 (antibody) | – | – | – | – | Geo Mean Ratio (relative to pK16) [1]: 1.9 |
| Control (antibody) | – | – | – | – | Geo Mean [2]: 3.03; Mean [2]: 3.54; Median [2]: 2.84 |
| Irrelevant Antibody (Table 6) | 0.008 | 0.013 | 0.009 | 0.012 | – |
| Isotype control (Table 6) (antibody) | 0.008 | 0.009 | 0.009 | 0.009 | Avg OD [7]: 0.009 OD; Avg OD [8]: 0.011 OD |
| Mab1.15.1 (CR011), fully human IgG2 (antibody) | 1.05 | 0.701 | 1.16 | 0.902 | Avg OD [7]: 0.381 OD; Kd [9]: 52 nM; Avg OD [8]: 0.168 OD |
| Secondary Ab control (Table 6) (antibody) | – | – | – | – | Avg OD [10]: 0.011 OD |
| Secondary Ab-PE (antibody) | – | – | – | – | Geometric Mean [11]: 7.69 |
| isotype-matched control IgG2 antibody | – | – | – | – | Geometric Mean [12]: 8.63 |
